# Test results: publication PMC7938106, “In vitro complex formation of human PYRIN domain-only protein 3 prevented by self-oligomerization of ASC PYD domain” (Saudi Journal of Biological Sciences, 2021)
# Target: the molecule itself
# Assay: SEC-MALS; POP3 PYD (1-83) alone on column HR 10/30 in 20 mM Tris-HCl pH 8.0, 150 mM NaCl; three-angle light scattering and refractive index detectors, ASTRA software
protein,measurement,value
"PYD domain of PYRIN Domain-Only Protein 3 (POP3), amino acids 1-83 (domain or fragment, human, UniProt W6CW81 1-83, looked up, PYRIN domain-only protein 3 (POP3), human, PYD domain, residues 1-83 of the 113-residue protein; The vector probably adds linker residues before the His6; also called POP3 PYD (1-83 aa); POP3PYD; not shown: His6, C-terminal, kept) MESKYKEILLLTSLDNITDEELDRFKCFLPDEFNIATGKLHTLNSTSSQLDLKRWHGVCSEEDRIFQKLNYMLVAKCLREEQE",stoichiometry N,2
